The DeepSol protein solubility set

Test: soluble on expression in E. coli; label from the status in PepcDB or PDB records

Sequence | soluble on expression in E. coli
MGSDKIHHHHHHMRLGVNEAVELSLGELQNTPSISYFNSIVLSLNKVQKGSLFVAKDHTLIPKALELGAYGILYTGEYPVSDRDVAWIKLKDIEHSLNHLFKFCLLNERVVGALLSPIELEIASKIMVSNFVWCLKESLEDLFIIEGCKIAFFDKLEWLHLFYKQEHLKEDLKESCLIILNQSFFCSALVYEKQEYEFKMPCIFLGSLKRVIQLCEKLQIEFDLNLLGKKEYPLDHCKPFFVNKNLEIAPYGTTARVIVAETSKELFEMMLQKAFEILSWGKIVVFCRKNSAAFFKKTNPYFYTTQNNLKEQLKNLAFNFAFIHGISSHHLESLLNPPFFKKTPTLW | not soluble
MGSDKIHHHHHHMRLTIHHTTRYRFDEPVSFGLQQLRKTPKTNTNQQVVEWQTRIIGGQKEVSFDDHHHNVTELISFEPGVTELELVSEGVVELTDTHGVVGRHRGPSPLWLYARPTVLTEARAGVRELIRDLDDSNPVDMLHQLSARIREAITYQIGVSELGWSAEDAIQSAHGVCQDHAHVFIACARKLGLPARYVSGYLMLDDRTTQDAMHAWAEAHVEGLGWVGFDVSNGISPDARYVRVATGLDYSDAAPVSGTRIGGAGEALDVQIEVAQQ | not soluble
MGSDKIHHHHHHMRNWLLPEYIEDVLPRDAYRIEKIRRLIMDMLFAHGYQFVMPPLLEYVESLLAGSGSGMNLRMFKVVDQLSGRMMGLRADMTPQAARIDAHLLNISGVTRLCYASSVVHTVPDEITRTREPFQVGAELYGHSGIESDLEIQCLLLECLSVSGIHSIHLDLGHIRVFRSLIRDSGIKPEFEMELYAALWAKDISSLKELVRTGLNKRLTRSVQNALLLLPELYGDGTVLLSARQHLPDFPEIGEALDQLEHVARILQPYVDRITFDLADLRGYHYHTGMVFAVYTPGCPAPIALGGRYDEIGKSFGRARPATGFSLDLKQLSQLTDMNGYPSGILAPWKPEDEKLAAMVRQLRAEGHIVVTELPGEENQEVTGCDRKLVFRNGNWEIDPVTG | not soluble
MGSDKIHHHHHHMRPATALSVTACGPVSTSRPRAASRAAIRLSSGERRFLIDIDVSKPRLRPMTAMTPTLALERSAASGKVAPTPADLSITVRDRRFGRNSPPGRWWLAGDPVATAWHNALSATFPRGEAFFIEAVKAHREGASPKLEAEIRAFVKQEINHTREHIAFNRAAENAGYDIARIDKRVEEMLALTKDRPVILNLAATMALEHYTAMMAHEFLANPAHFAGAEQEAADMWRWHAIEEIEHKGVAYDTWLHATRDWSRWKRWKVKSLMMVVVTKNFITHRVEDTLDLLAQDGLTGAKWKWRLAAYLLWKPGVIRRILPAWLGYFLPGFHPWKHDDRALIGKADSEFTDAVMPG | not soluble
MGSDKIHHHHHHMRPTQKGDYLNPMSDLFQDYSEAAARSGAYDEMFAQGHVARRSYGQVSGALRELSLADVTARADSMARTFLDRGVTFDYAGEERPFPLDIVPRVIPADEWNVLERGVAQRVKALEAFLNDVYGRMAVVTDGVIPRQLVTTSAHFHRAVHGFEPSGGVRVHVSGIDVVRDAAGTFRVLEDNVRVPSGVSYVLENRRAMAKGLPEAFGQQHIRPVEEYPRRLLSALRKTAPAGVDDPTVVVLTPGVFNSAYFEHTLLAGLMGVELVEGRDLICRGNRVYMRTTAGEQRVDVIYKRIDDDFLDPLQFRSDSMLGCPGLVNAARAGGVTIANAVGNGVADDKLVYSYVPDLIRYYLHEEPIIANVDTFRLEEKEAREHVLDRLDELVVKPVDGSGGKGLVIGPDATKDELDALRKRVIADPRGWIAQPVLQLSTVPTLSGDKFGPRHVDLRPFAVNDGDDVWVLPGGLTRVALKEGSLIVNSSQGGGSKDTWVLADSPQLPAEIIPRQSVTVREQVSVWPVESNWRDRQTEQQQ | not soluble
MGSDKIHHHHHHMRRCPLCTSEETAPFYQDRKRCIYRCKRCMLLFADANSHLPPSAEVKRYRSANSKDKPLQQFLSSLITQCEQQVQGPLLGLNFGRLLNPQAIDAIKARGHQLNQYDPHFAPDHTLLRLEYDFICCYRVFEHFRFPGKEWQLLCSLLKPGGWMAISTQLLTELQGFPKWHHKNNLTHVSFYQQATFQYLASQAEFRLLFASKDLILVQKPTGSGITRDPSSLI | not soluble
MGSDKIHHHHHHMRRSDGRLLKSLSPFVRIIPHIMTKRNDAQNFYKQVVAVDKIDQYIKEKKDQGIRLNYLHLFIAVYVRVLAQRPQLNRFIMNNKIYTRYDIRISMAIKRLLKDDGEETTVKFLFSGLESIEEIVKIVDQTIEEGCAAGAANEVDTIAQRIMALPNSQVKLLVGTLKWMDRHNLLPKKIIEASPFHTSLFFTYLKSINLDFIYHHLYDFGTTGIFVALGKSKKLPVVEEDQVVVKKCCEIGYVLDERICDGLYYSNSFKLVKKYLANPYLLDERLEKVEEDVN | not soluble
MGSDKIHHHHHHMRSNNNNPLTRDEILSRYFPQYRPAVATSQGLSGGSCIIAHDTHRVVLRRHHDPDAPPAHFLRHYRALSQLPASLAPRALFYTPGWMAVEYLHGVVNSALPDADELAALLYHLHQQPRFGWRIALSPLLAQYWSCCDPARRTPFWLRRLKQLQKNGEPRPLRLAPLHMDVHGDNIVLTSAGLRLIDWEYAGDGDIALELAAVWVEDERQHRQLADAYAARARIDARQLWRQIRLWHPWVIMLKAGWFEYRWRQTGEQQFIRLADETWRQLRMKG | not soluble
MGSDKIHHHHHHMRSPNFYTYAFLNTPDVPLRLPSGNLGQLLLINGNNISAVVEPGISLESSQNNDEEVIKMVLAHDRVICELSQQTTVLPLRFGTYFNSEETLLNHIESHAQEYQKKLDNIQGKTEYTLKLIPRKFEELAKISGGHGRDYFLAKKLHYEHQKSFIGDQNREKHHLINLMMDIYRSSAIIQDYVEEVRLHLLVDRHDKALLFKQVLTLQEKCPHWNLILGEPLPPYHFV | not soluble
MGSDKIHHHHHHMRTSTHAEVLTYSDEQTSVRHLQNSAPLALKHTISPAEIRDNLPAGQGGVGFLFHATDWDTLSFSFHNVKHRNASFEEELWRTKPFIASPIYSGSQIIGANIACPVPLELWLGSPRGIKRFRETQFFPALELARQAGLNMVAMGASTPYACNYGALPRDTRPPHITTGHAATAAMLKDWAMHCCNELDLEFGKSKLALFGAAGRLGTTVAKYALYKDAPRELVLIDLPDKVNLLTEQAKELMASDLLGKTRVSVHTFSPHTPLPDFDGAILASSTSVPYLTAADLRRAQFWIDDSHPRAASVEAELASRGHTLYIECFARGPAGLNTTFPFRLPTTRDCYTCFAEGYSAWQEGIASDFIIGSPPVWSVSYTHSLLKKYGFAVGPFHGKNGSPITLDTQLRGKQELMSS | not soluble
MGSDKIHHHHHHMRVEEAKYLAKKIMMAGEIPLLVGHFGVGKTDIARDIARETERKLIILVLSQMEPGDLIGLPARTEEKTVFLKPDWWPESGDTILFLDEINRAHRSVRNAIMQLLVDRRIHNHILPEGTWIMAAMNPPEEEYDQADLITDPAFISRFFILEVNPDVSEWLEWAEKNNVSKEVRDFIRDYPEFLFSERSLSLRTSLKPSPRSWYKLSNVLKTLTDDEKEKYGYVIAAGIVGPEAAKAFYDSFFQRVKIPSVESVLFDGKIENLEDIHAANTLVLRIVDFLSKVDVRTLERHLDDVSKNLVRLSEIMPKESFYGVLRFLVDEAQKEGEKSWIFDKILEKMLEREDMRKMVNEL | not soluble
MGSDKIHHHHHHMRVFIIHLSPKTCQNFSLKETHITPLLESLKLQGISYEIFDAIYSKISPTQLHPLILEHLHPSFMVEDLWAFCKNKKHPPCALKNFFYAIKHCGKRMGFGELGCYASHYSLWQKCIELNEAICILEDDIIIKDRFKESLEFCRHHINELGYIRLMHLEENVAKQKTPVKGVSQILNFKDGIGTQGYVLAPKAAQKLLKYSAKEWVMPIDCVMDRHYWHGVKNYVLEEFAIACDGMNAQNSNTEKQRPKKLPLSIRIGRSLHKSTIKFLDKVFRYSPKLIRIGKH | not soluble
MGSDKIHHHHHHMSAPTITTLGEFLQAGQAEYKIFDIGRCLTELSQEEFAAIEQQQRPYPYPIARQAQLAILFQHKQHDQQPFIWFLQFPLDERGLLNIAARNQYLEYVVNALGHEITGEMTEEQQKQLQQNPYLLTPNEQQRAALHARVQRQQKLSPSIHFETAEAYLKQPESGIDWQQMGLQGLHDCAARLEQLPELSKAIATHFSHYPSAVRQPLAVALEQQSLTPPVRDALLQNLESSNAQLCTDSLRALASASAHPRVKKAVNKLVPHANADQLVVIAARLWPVLCEEQNLLRYLDAIAELDNSLFDALFQDIIALPDIRPLLLSIIAQQKQSAAVNEALNRLKQQTQGS | not soluble
MGSDKIHHHHHHMSDASKPDSNEVREIRINPVVPGESVLVATARSMRPKKAEELAPRDTRKHVETCPFCRGNEHKTPPAILTWPDTGDWQIRMVENLYPVLGDDRAQAGFTFGLQQTIDGYGRHEVIIDHSEHGIAVQDMAETHLAALFGVYQTRMRQLFDSDERLKYVLVFKNFGPAAGASIPHTHSQVIAMPVVPENVDAEVRNSATHYAKHHHCIFCALIDEALTFEATIYDRNSGAVRRKINVGQYVVERGEKFIAIKPFASRYEWEVHILPLAHQADFLDVRGEDLADLARVMKRTMARLDAVIGGAQYNFFLHSVPHDAQQATHAPSYHWHLEICPRTSIPTGFELGSGLFVNTINPEEAAERLRSVELPAR | not soluble
MGSDKIHHHHHHMSDEWIKIFESDFYVREMIKVWDEGEKWANWIDEVVSKYKLEKKVLDIPCGIGRVSYFLANRGYKVTGIDISERMISMARSNIQNGKFIVGDMRKIKEIIGNEKYDLVINIYNSLGYYSEEDDLKILESLRDSTRKIVVINLDNRDYIIYNRPNEYYTYIPPYLVYSKVEFEQETSRLKIYRKYYLNDKEVGEMIYEQRLYSIHEILALLKKAGLQPIEVLSGYSWKKFSIMDPEMTIIATPA | not soluble
MGSDKIHHHHHHMSDLITLAQLSQGYRYNSDSLILADFILKQGIKGAVFDVGAGCGIIGILLKKNIANLSLSLIDIQKENIELIEKNLKSNKIQGDIFHDDFNQFQIIKKFDFIVCNPPFYRQGAYKSEDQHKAISKFQEFLPLHSFLAKTNSMLKPNGTLYFCYEALALDEICFILKDMKMKITKLCFVHTHQSKKARLVLIQVKKGSKSPCEILPPFFVYENEILSKQMQEIHLRFRLKSYDI | not soluble
MGSDKIHHHHHHMSDLTVNDGSYQQLLDRIGECLALGQQRSFEQVNSVLVETYWQIGRYIVEFEQAGKERAEYGSKLLQVLSRDLKAAYGKGFSRSNLQYMRLFYLNYENCQTLSGKLSWSHYTELLAISDDLARSFYEQQCIQDRWSVRELKRQKDSALFERVALSKDRAEILALAKDGQRIESARDVVKDPYVFEFLDLPDRNYRESELENRLIAELEKFLLELGKGFAFIGQQYRITLNNTHFFVDLVFYHRILKCFVLIDLKTRAVSHQDIGQMNMYLNYFRAEENMEDDNEPIGIVLARDKDEILVEYAKGGISNQLFVSRYQLYLPDPEVLKQELKRLLSVNDG | not soluble
MGSDKIHHHHHHMSEEAFDAIIVGAGLAGCVAAYVLAKEGADVLVIERGNYAGSKNMTGGRLYAHSLERIIPGFAKEAPIERKVTKEKVTFLTDDTGVTLDYHNGRDQSPLQESYTLLRGEFDQWLMGKAEEVGAQFITGIRVDEILTQDGKVIGVKADGDELTAKAVILAEGVNPILGEQLGMVKPKVSADAMAVGAKELIELPESVIKDRFNLKDDEGAAWLFAGSPSNGLMGGGFIYTNRNSISLGIVCGLHGIGESDKSVPQMLEDFKNHSLIKPLIEGGKLLEYSGHVVPEAGLNMVPKLVDHGVLITGDAAGFCLNVGYTVRGMDLAIASGEAAAKAVLAARAQQDFSAQGLSSYQSLLEESFLMKDMKLYKQLPAFMETPRIFNQYPKMVADIMHEMFIIDGTPAQPLRKTLLKHCKEVGFMNLIKDGYKGVTSI | not soluble
